Reference: US20180187272A1

Target: Ste2 GPCR (Saccharomyces cerevisiae) (UniProt D6VTK4)
Assay: cell-based or functional assay

Ste2 GPCR (Saccharomyces cerevisiae), sequence (D6VTK4 whole entry): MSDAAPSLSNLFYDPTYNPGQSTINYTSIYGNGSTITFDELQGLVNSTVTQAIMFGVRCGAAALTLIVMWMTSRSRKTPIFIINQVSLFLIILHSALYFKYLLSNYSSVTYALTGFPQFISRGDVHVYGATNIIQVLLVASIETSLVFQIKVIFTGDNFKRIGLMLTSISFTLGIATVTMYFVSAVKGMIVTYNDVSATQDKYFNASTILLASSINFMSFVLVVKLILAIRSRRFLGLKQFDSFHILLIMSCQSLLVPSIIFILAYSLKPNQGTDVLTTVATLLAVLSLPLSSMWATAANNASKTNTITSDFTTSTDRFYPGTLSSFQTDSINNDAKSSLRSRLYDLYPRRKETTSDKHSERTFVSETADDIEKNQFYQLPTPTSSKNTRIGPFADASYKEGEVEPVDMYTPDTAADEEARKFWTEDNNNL

## α-factor (from UniProt P01149 90-102) (peptide)
  GFP max (AU), PFig1-GFP(m): 7570 AU
  GFP max (AU), PFig1-GFP(s): 2310 AU
  GFP max (AU), PFus1-GFP(m): 20500 AU
  GFP max (AU), PFus1-GFP(s): 4560 AU
  KM (chemical concentration at half maximal signal), GFP reporter PFig1-GFP(m), flow cytometry: 0.02 µM
  KM (chemical concentration at half maximal signal), GFP reporter PFig1-GFP(s), flow cytometry: 0.03 µM
  KM (chemical concentration at half maximal signal), GFP reporter PFus1-GFP(m), flow cytometry: 0.02 µM
  KM (chemical concentration at half maximal signal), GFP reporter PFus1-GFP(s), flow cytometry: 0.02 µM
